Patent US20160046928A1 (Bicycle, published 2016)
Starred links: 1 amine or outer side, 2 acyl side, 3 side chain; linkers in the order of their positions; H or OH if unused. Positions of bridges follow the written chain, without caps; N, C: chain ends. Non-standard residues stand in square brackets, D forms with d. TBMB = c1c(C[*:1])cc(C[*:3])cc1C[*:2]; NMeR = CN[C@@H](CCCNC(=N)N)C(=O)O

Target: kallikrein (UniProt P03952 20-638, limits assumed)
Assay: cell-based or functional assay

Sequence of kallikrein (P03952 20-638 limits assumed): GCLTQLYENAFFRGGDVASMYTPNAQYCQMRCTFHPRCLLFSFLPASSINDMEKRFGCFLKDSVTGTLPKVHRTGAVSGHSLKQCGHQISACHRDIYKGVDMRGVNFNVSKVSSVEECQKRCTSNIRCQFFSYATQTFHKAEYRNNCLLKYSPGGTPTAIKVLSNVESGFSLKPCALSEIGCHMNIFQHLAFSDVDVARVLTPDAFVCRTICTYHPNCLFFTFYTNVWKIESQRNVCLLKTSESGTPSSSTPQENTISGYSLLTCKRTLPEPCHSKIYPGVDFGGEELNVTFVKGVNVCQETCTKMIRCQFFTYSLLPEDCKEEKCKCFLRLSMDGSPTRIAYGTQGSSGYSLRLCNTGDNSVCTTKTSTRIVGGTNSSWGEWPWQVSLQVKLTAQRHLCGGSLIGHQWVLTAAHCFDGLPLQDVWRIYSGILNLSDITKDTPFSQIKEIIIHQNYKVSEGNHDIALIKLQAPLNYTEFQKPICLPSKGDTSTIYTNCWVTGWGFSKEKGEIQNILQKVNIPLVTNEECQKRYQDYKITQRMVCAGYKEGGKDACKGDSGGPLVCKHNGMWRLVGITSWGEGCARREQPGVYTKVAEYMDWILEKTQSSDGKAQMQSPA

| Binder | inhibition of kallikrein activity (IC50, substrate Z-Phe-Arg-amc, fluorescence) [µM] |
| --- | --- |
| H-ACSDR[dF]RNCPADEALCG-OH (linker 2-9-16 via TBMB) [H-ACSDRfRNCPADEALCG-OH (D-Phe variant of PK15), TBMB conjugate] | 4 |
| H-ACSDRF[NMeR]NCPADEALCG-OH (linker 2-9-16 via TBMB) [H-ACSDRF-(NMeArg)-NCPADEALCG-OH (N-methyl-arginine variant of PK15), TBMB conjugate] | 3.1 |
| H-ACSDRFRNCPADEALCG-OH (linker 2-9-16 via TBMB; also: reduced peptide bond Y[CH2NH] between Phe6 and Arg7) [H-ACSDRF Y[CH2NH] RNCPADEALCG-OH (reduced peptide bond variant of PK15), TBMB conjugate] | 16.6 |
